Data set [1] can be described thus: Microsphere quality score by light microscopy (scoring system of Table 13). Type of data set: physicochemical. On the procedure: For each of the compounds listed in A-D above, and for DAS181, cocktail solutions containing 2 mg/ml of compound dissolved in an aqueous solvent and various counterions, antisolvents and pH, as listed below, were prepared in a 96-well microtiter plate (0.1 ml cocktail/well) at room temperature. Control solutions contained either solvent or antisolvent alone, with or without the counterion. Cocktails were cooled by placing in a freezer. The chilled plates were transferred onto pre-chilled (−45° C.) shelves of a Millrock Lab Series Lyophilizer, and the vacuum was applied. The frozen cocktail solutions were allowed to lyophilize for 16 hours.
The lyophilized powders from the bottoms of the wells were transferred onto glass slides and analyzed by light microscopy for appearance. The quality of the product microspheres was scored based on the uniformity of the microspheres, the absence of undesirable non-microsphere particles (glass-like crystalline forms), and the absence of aggregates.
Arginine was used as counterion and isopropanol was used as antisolvent. Concentrations of each of the cocktail components—the compound, the counterion and the antisolvent—were varied as shown below in Table 15, and the effect on microsphere quality assessed.
Experiments were performed to evaluate the effect of antisolvent and counterion concentration variation on the formation of microspheres. The peptides leuprolide and somatostatin, and the antibiotics vancomycin and tobramycin, were tested under a variety of conditions for forming microspheres. Samples were analyzed in 96-well plates as described in the previous Examples.
The experiments were performed using PGI2 and an analog of PGI2, Ciprostene, at a concentration of 2 mg/ml. Cocktail solutions were mixed at room temperature, then cooled by placing in a freezer. The chilled plates were transferred onto pre-chilled (−45° C.) shelves of a Millrock Lab Series Lyophilizer, and the vacuum was applied. The frozen cocktail solutions were allowed to lyophilize for 16 hours.
Because the resulting prostaglandin microspheres are hygroscopic, upon microsphere initiation, the humidity was maintained at low levels during the experiments, using a nitrogen gas tank attached to the backfill system on the lyophilizer. Each of the reaction tubes was flushed with N2. In addition, the backfill valve on the lyophilizer was left open to continually flush a low humidity atmosphere over the samples. The microscope used to visualize the resulting microspheres was contained within a plastic bag that was continually purged with dry N2. Sample tubes were placed under the bag to equilibrate for approximately 30 seconds, before opening and spreading onto the glass slide.
The compound/counterion/antisolvent conditions were as follows:
Experiments were performed with 200 μl of each of the above cocktail solutions in a 2 ml lyophilization bottle (first flash freeze condition), and 25 μl of each of the above cocktail solutions in a PCR tube (second flash freeze condition). The samples in the lyophilization bottles took approximately 15 seconds to freeze. The samples in the PCR tubes took approximately 3 seconds or less to freeze.
The cocktails in the 96-well plates were cooled by placing in a freezer. The chilled plates were transferred onto pre-chilled (−45° C.) shelves of a Millrock Lab Series Lyophilizer, and a vacuum was applied. The frozen cocktail solutions were allowed to lyophilize for 16 hours.
The lyophilized powders from the bottoms of the wells were transferred onto glass slides and analyzed by light microscopy for appearance.

A short description of data set [2]: Microsphere formation, size and appearance by light microscopy. Format: physicochemical. On the procedure: 4) DAS181+5 mM sodium citrate, pH 5.0+10% isopropanol; • Plastic microcentrifuge tubes containing the cocktails with ingredients as described in 1)-4) above were gradually cooled from: • (a) ambient temperature (about 25° C.) to 4° C. by placing the cocktails in a refrigerator, followed by: • (b) cooling to −20° C. by placing the resulting cocktail from (a) in a freezer, followed by: • (c) freezing to −80° C. by placing the resulting cocktail from b) in a freezer.
Freezing to −80° C. is carried out to remove ingredients from the cocktail other than the microspheres (e.g., solvent, etc.) by freeze-drying. Cocktail 4) was prepared in triplicate, two aliquots in plastic tubes and one in a glass tube. One aliquot (in a plastic tube) was cooled as described above, while the two other aliquots (one in a plastic tube and one in a glass tube) were subjected to snap cooling/freezing by dipping the tubes into liquid nitrogen.
Upon freezing, all tubes were placed into the lyophilizer and the volatiles (water and isopropanol) were removed by sublimation, leaving the dry pellets.
The dry pellets recovered from the cocktails treated as described above, were tested for the presence of microspheres.
(§1) DAS181 was purified and used to prepare microspheres as described above in Example 1 (see cocktail 4)), using a combination of DAS181 protein (10 mg/ml), citrate counterion (sodium citrate, 5 mM) and isopropanol organic solvent (10%, 20% or 30%). The resulting cocktail solutions were cooled from ambient temperature (about 25° C.) to 4° C., followed by cooling to −20° C., followed by freezing to −80° C., as described in Example 1. Upon freezing to −80° C., the tubes are placed in a lyophilizer and the volatiles (water and isopropanol) were removed by sublimation, leaving the dry powder containing microspheres.
as §1, with “protein (5 mg/ml or 10” for “protein (10”, “isopropanol (5%” for “isopropanol organic solvent (10%, 20%”, “or 20%).” for “or 30%).”, “tubes were” for “tubes are”
DAS181 was purified and used to prepare microspheres as described above in Example 1 (see cocktail 4)), using a combination of DAS181 protein (10 mg/ml), citrate counterion (sodium citrate; 2 mM, 3 mM or 6 mM) and isopropanol (20%). The cocktail solutions were mixed in glass vials and cooled from +20° C. to −40° C. at a freeze ramp of 1° C. per minute in a Millrock Lab Series lyophilizer. Volatiles (water and isopropanol) were removed by sublimation at 100 mTorr with primary drying at −30° C. for 12 hours and secondary drying at 30° C. for 3 hours, leaving the dry powder containing microspheres.
To a cocktail solution containing 5 mg/ml DAS181, 5 mM sodium citrate, and 20% isopropanol, was added a surfactant (3.5% w/w lecithin, 0.7% w/w Span-85® (sorbitan trioleate), or 3.5% w/w oleic acid).

B1: DAS181: fusion protein: heparin (GAG) binding domain of human amphiregulin fused to a catalytic domain of Actinomyces Viscosus sialidase (SEQ ID NO:17) (protein)
chain: MGDHPQATPAPAPDASTELPASMSQAQHLAANTATDNYRIPAITTAPNGDLLISYDERPKDNGNGGSDAPNPNHIVQRRSTDGGKTWSAPTYIHQGTETGKKVGYSDPSYVVDHQTGTIFNFHVKSYDQGWGGSRGGTDPENRGIIQAEVSTSTDNGWTWTHRTITADITKDKPWTARFAASGQGIQIQHGPHAGRLVQQYTIRTAGGAVQAVSVYSDDHGKTWQAGTPIGTGMDENKVVELSDGSLMLNSRASDGSGFRKVAHSTDGGQTWSEPVSDKNLPDSVDNAQIIRAFPNAAPDDPRAKVLLLSHSPNPRPWSRDRGTISMSCDDGASWTTSKVFHEPFVGYTTIAVQSDGSIGLLSEDAHNGADYGGIWYRNFTMNWLGEQCGQKPAKRKKKGGKNGKNRRNRKKKNP
modifications: DAS181
Consider B1, for which the “Microsphere Quality” value was 6/7 in data set [1] (2 mM Na-Glutamate, 15% n-propanol, pH 4.0); 5/6 in data set [1] (2 mM Na-citrate, 15% isopropanol, pH 4.0); 8/9 in data set [1] (2 mM Na-citrate, 15% n-propanol, pH 5.0). Further, the size of microspheres entry in data set [2] (5 mg/ml DAS181, 5 mM sodium citrate, 20% isopropanol) is “about 3 microns”; in data set [2] (10 mg/ml DAS181, 2 mM citrate, 20% isopropanol, +20°C to −40°C at 1°C per minute), 1 micron; in data set [2] (10 mg/ml DAS181, 3 mM citrate, 20% isopropanol, +20°C to −40°C at 1°C per minute), 3 microns; in data set [2] (10 mg/ml DAS181, 5 mM sodium citrate, 30% isopropanol, gradual cooling), 5-6 microns; in data set [2] (10 mg/ml DAS181, 6 mM citrate, 20% isopropanol, +20°C to −40°C at 1°C per minute), 5 microns. In addition, the “dispersivity of microspheres formed with surfactant vs without” value in data set [2] (5 mg/ml DAS181, 5 mM sodium citrate, 20% isopropanol + 3.5% w/w lecithin, 0.7% w/w Span-85 or 3.5% w/w oleic acid) is recorded as “improved dispersivity”.

The values above are taken from patent publication US20190060239A1, “Technology for the Preparation of Microparticles” (Ansun Biopharma, Inc., priority 2007, published 2019).
